Results on six substances are retold here after publication PMC6150820 (ACS chemical biology, 2018).

For test [1], the target named is T1, E. faecalis Fsr QS circuit (gelE promoter) (Enterococcus faecalis, UniProt A0ACD6TCR9). It counts as cell-based, E. faecalis TX5274. Conditions: EC50 ratio relative to GBAP; for Fold Change relative to GBAP, loss in potency: parentheses = loss.
For test [2], the target named is T1, E. faecalis Fsr QS circuit (gelE promoter). Conditions: cited from earlier work; for EC50: read-out: EC50 [95% CI], previously published analog shown for comparison.
In test [3] the test system is wild type E. faecalis cells (strain TX4002). Nature of the test: Biofilm formation phenotypic assay. It counts as cell-based. Conditions: exogenous GBAP added to wild type TX4002 cells.

Bounds are passed on as bounds.

For “Ac-GBAP-Des(Q1N2) (SPNIFGQWM; not fully specified; N-acetyl tail; lactone macrocycle) [Peptide 10]”, the “Fold Change relative to GBAP, improvement in potency” value in test [1] (no parentheses = improvement) worked out at 1.1 fold. Also, the EC50 in test [2] is 1.01 nM.

Regarding “GBAP (SPNIFGQWM; not fully specified; N-terminal QN tail; lactone macrocycle) [Peptide 1, reference compound]”, the EC50 in test [2] was 1.15 nM. Also, the “increase in the amount of biofilm formation” value in test [3] is reported as 30–50%.

“GBAP-Des(Q1N2) lactam (SPNIFGQWM; head-to-tail lactam cyclization) [Peptide 11]”: the “Fold Change relative to GBAP, loss in potency” value in test [1] was “(> 10,000) fold”. In addition, in test [2], the “agonist activity” value is “completely inactive” and the EC50 was over 10000 nM.

In the case of GBAP-G8A [Peptide 2], in test [1], the “Fold Change relative to GBAP, loss in potency” value was “(> 10,000) fold”. For the same substance, in test [2], the “agonist activity” value was “complete loss of activity” and the EC50 is over 10000 nM.

Take GBAP-f7 [Peptide 4]: the EC50 in test [2] is 4.97 nM.

Consider GBAP-s3 [Peptide 12], for which, in test [2], the EC50 was 45.1 nM.
